Measured values as given in patent US20250197514A1 (INTERVET, published 2025).
Residue numbers refer to the chain shown, from its start. In names and notes the source's numbering stands.

T1: canine FcRn heterodimer (FCGRT large subunit p51 + beta-2-microglobulin), biotin-labeled (Canis lupus familiaris; Canis familiaris, biotin-labeled (site not stated; the chain carries an AviTag))
T1 construct: also called FcRn/B2M; FcRn/β2M; not shown: AviTag, named only
T1 chain (part 1 of 2): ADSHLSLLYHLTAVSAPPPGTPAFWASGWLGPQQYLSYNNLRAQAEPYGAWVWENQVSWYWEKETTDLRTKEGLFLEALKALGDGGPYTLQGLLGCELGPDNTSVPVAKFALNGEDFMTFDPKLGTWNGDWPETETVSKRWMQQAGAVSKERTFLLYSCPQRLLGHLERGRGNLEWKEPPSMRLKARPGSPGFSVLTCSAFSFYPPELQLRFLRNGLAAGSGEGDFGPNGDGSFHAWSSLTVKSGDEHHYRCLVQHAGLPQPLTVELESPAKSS
T1 chain (part 2 of 2): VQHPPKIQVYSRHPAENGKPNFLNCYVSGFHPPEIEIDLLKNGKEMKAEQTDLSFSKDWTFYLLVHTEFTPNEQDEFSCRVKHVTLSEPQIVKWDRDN

B1: cIL-13Rα2-cIgGB-Fc-YT (Fc fusion)
chain: SMLSNAEIKVNPPQDFEIVDPGYLGYLSLQWQPPLFPDNFKECTIEYELKYRNIDSENWKTIITKNLHYKDGFDLNKGIEAKINTLLPAQCTNGSEVRSSWAETTYWTSPQGNRETKIQDMDCVYYNWQYLVCSWKPGMGVHFDTNYQLFYWYEGLDHSAECTDYIKVNGKNMGCRFPYLESSDYKDFYICVNGSSESQPIRPSYFIFQLQNIVKPMPPDYLSLTVKNSEEINLKWNMPKGPIPAKCFIYEIEFTEDGTTWVTTTVENEIQITRTSNESQKLCFLVRSKVNIYCSDDGIWSEWSDEQCWKGDIWKETPKRENGRVPRPPDCPKCPAPEMLGGPSVFIFPPKPKDTLLIARTPEVTCVVVDLDPEDPEVQISWFVDGKQMQTAKTQPREEQFNGTYRVVSVLPIGHQDWLKGKQFTCKVNNKALPSPIERTISKARGQAHQPSVYVLPPSREELSKNTVSLTCLIKDFFPPDIDVEWQSNGQQEPESKYRTTPPQLDEDGSYFLYSKLSVDKSRWQRGDTFICAVMHEALHYHTTQESLSHSPGK
notes: also called cIL-13Ra2-cIgGB-Fc-YT; N434Y/Y436T
B2: cIL-13Rα2-cIgGB-Fc-LF (Fc fusion)
chain: B1 chain with H540L, Y541F, T543Y
notes: also called cIL-13Ra2-cIgGB-Fc-LF; H433L/N434F
B3: cIL-13Rα2-cIgGB-Fc-LFT (Fc fusion)
chain: B1 chain with H540L, Y541F
notes: also called cIL-13Ra2-cIgGB-Fc-LFT; H433L/N434F/Y436T
B4: cIL-13Rα2-cIgGB-Fc-Y (Fc fusion)
chain: B1 chain with T543Y
notes: Made in ExpiCHO, Protein A purified; also called cIL-13Ra2-cIgGB-Fc-Y; N434Y
B5: cIL-13Rα2-cIgGB-Fc-LY (Fc fusion)
chain: B1 chain with H540L, T543Y
notes: also called cIL-13Ra2-cIgGB-Fc-LY; H433L/N434Y
B6: cIL-13Rα2-cIgGB-Fc-LYT (Fc fusion)
chain: B1 chain with H540L
notes: also called cIL-13Ra2-cIgGB-Fc-LYT; H433L/N434Y/Y436T
B7: cIL-13Rα2-cIgGB-Fc-T (Fc fusion)
chain: B1 chain with Y541N
notes: also called cIL-13Ra2-cIgGB-Fc-T; Y436T
B8: cIL-13Rα2-cIgGB-Fc-PY (Fc fusion)
chain: B1 chain with I413P, T543Y
notes: also called cIL-13Ra2-cIgGB-Fc-PY; I308P/N434Y
B9: cIL-13Rα2-cIgGB-Fc-KFT (Fc fusion)
chain: B1 chain with H540K, Y541F
notes: also called cIL-13Ra2-cIgGB-Fc-KFT; H433K/N434F/Y436T
B10: cIL-13Rα2-cIgGB-Fc-KY (Fc fusion)
chain: B1 chain with H540K, T543Y
notes: also called cIL-13Ra2-cIgGB-Fc-KY; H433K/N434Y
B11: c218D9-H4L3-cIgGBm-YD (antibody)
heavy: EVTLQESGPGLVKPSQTLSLTCSFSGFSLSTFGRGVGWIRQRPGRGLEWMGHIWWDDDKYYNPALKSRLSITKDTAKNQVFLQLSSMTTEDTAVYYCARIAGGLRRAPYAMDSWGQGTLVTVSSASTTAPSVFPLAPSCGSTSGSTVALACLVSGYFPEPVTVSWNSGSLTSGVHTFPSVLQSSGLYSLSSMVTVPSSRWPSETFTCNVAHPASKTKVDKPVPKRENGRVPRPPDCPKCPAPEMLGGPSVFIFPPKPKDTLYIARDPEVTCVVVALDPEDPEVQISWFVDGKQMQTAKTQPREEQFAGTYRVVSVLPIGHQDWLKGKQFTCKVNNKALPSPIERTISKARGQAHQPSVYVLPPSREELSKNTVSLTCLIKDFFPPDIDVEWQSNGQQEPESKYRTTPPQLDEDGSYFLYSKLSVDKSRWQRGDTFICAVMHEALHNHYTQESLSHSPGK
light: DIVMTQTPLSLSVSPGETASISCRASENIYSSLAWFRQKPGQSPQLLVYAATNLADGVPDRFSGSGSGTDYTLRISRVEADDTGVYYCQHFRDTPPTFGQGTKLEIKRNDAQPAVYLFQPSPDQLHTGSASVVCLLNSFYPKDINVKWKVDGVIQDTGIQESVTEQDKDSTYSLSSTLTMSSTEYLSHELYSCEITHKSLPSTLIKSFQRSECQRVD
notes: also called c218D9VH4-cIgGBm-YD; L252Y/T256D

Target: T1, canine FcRn heterodimer (FCGRT large …)
Assay: BLI (Octet HTX), biotinylated FcRn/B2M on streptavidin biosensors, analyte 500-7.8 nM, pH 6.0, 1:1 fit
Experimental: (§1) The binding of antibodies and IgG Fc fusion proteins to FcRn proteins was determined by Octet™ HTX using Streptavidin (SA) biosensors. First, biotin-labeled […] was loaded onto pre-hydrated SA biosensors for 60 s at a concentration of 10 μg/mL. Second, the biosensors were placed into pH 6.0 TBS/Casein buffer for the blocking phase for 180 s. Third, for the association phase, FcRn/B2M loaded biosensors were placed into 2-fold serial dilutions from 500 nM down to 7.8 nM of antibody or IgG Fc fusion protein in pH 6.0 or 7.4 TBS/Casein buffer for 15 s. Finally, the biosensors were placed into either pH 6.0 or pH 7.4 TBS/Casein buffer for the dissociation phase for 60 s. Analysis was performed using Octet Data Analysis 12.0 software and curves were fitted using a 1:1 binding model.

Kd [nM] | Binder
1.39 | B1
2.27 | B2
2.87 | B3
0.11 | B4
2.35 | B5
3.32 | B6
5.95 | B7
0.3 | B8

Target: T1, canine FcRn heterodimer (FCGRT large …)
Assay: BLI (Octet HTX), biotinylated FcRn/B2M on streptavidin biosensors, analyte 500-7.8 nM, pH 7.4, 1:1 fit
Experimental: as §1

Kd [nM] | Binder
136 | B9
233 | B1
226 | B2
905 | B3
296 | B10
187 | B4
298 | B5
127 | B6
6120 | B7
20.4 | B8

Target: T1, canine FcRn heterodimer (FCGRT large …)
Assay: BLI (Octet HTX), biotinylated FcRn/B2M on streptavidin biosensors, analyte 500-7.8 nM, pH 6.0, 1:1 fit; pH 6.0
Experimental: as §1

Kd [nM] | Binder
931 | B9
0.00046 | B10

Target: T1, canine FcRn heterodimer (FCGRT large …)
Assay: BLI (Octet HTX), biotinylated FcRn/B2M on streptavidin biosensors, analyte 500-7.8 nM, pH 7.4, 1:1 fit; pH 7.4
Experimental: as §1

Kd [nM] | Binder
105 | B11
